{"source": "patent US8003609B2", "about": "“Method for ameliorating pain by modification of NMDA receptors through inhibition of Src” (The Hospital for Sick Children, priority 2004, dated 2011)", "format_in_all_cases": "binding", "key": {"[1]": {"target": "T1, ND2 association with NMDAR complexes (Rattus norvegicus, UniProt P11662)", "T1 construct": "from tissue; host or cells: rat brain post-synaptic density fraction", "test": "co-immunoprecipitation of ND2 with NMDARs from PSD proteins", "procedure": "(§1) Detailed protocols for in vitro binding assays, pull down assays, immunoblotting, and co-immunoprecipitation techniques can be found in Pelkey et al. (Neuron 34:127-138 2002).\n(§2) Post-synaptic density proteins (Kennedy et al. Proceedings of the National Academy of Science USA 80:7357-7361 1983) were prepared from rat brain as described in detail (Pelkey et al. Neuron 34:127-138 2002). Cellular fractionation of rat brain tissue into nuclear, heavy mitochondrial, light mitochondrial, microsomal, and cytosolic fractions was performed by differential centrifugation of tissue homogenate in 0.25 M sucrose/10 mM HEPES-NaOH, 1 mM EDTA, pH 7.4 with 2 μg each of aprotinin, pepstatin A, and leupeptin (Sigma, St. Louis, Mo.) at 4° C. Nuclei were pelleted by centrifugation at 1 000 g for 10 minutes, the supernatant was removed and spun at 3 000 g for 10 minutes to obtain a heavy mitochondrial pellet. The supernatant was removed and spun at 16 000 g for 15 minutes to obtain a light mitochondrial pellet. The supernatant was removed and spun at 100 000 g for 1 hour to obtain a microsomal pellet and the cytosolic fraction. All pellets were then resuspended in RIPA buffer (50 mM Tris pH 7.6, 150 mM NaCl, 1 mM EDTA, 1% NP-40, 2.5 mg/ml NaDOC, 1 mM Na3VO4 1 mM PMSF, and 2 μg/ml each of protease inhibitors). The light mitochondrial fraction was used in subsequent experiments. […]"}, "[2]": {"target": "T2, association of Src with the NMDAR complexes (Rattus norvegicus, UniProt P11662)", "T2 construct": "from tissue; host or cells: rat brain post-synaptic density fraction", "test": "co-immunoprecipitation of Src with NMDARs from PSD proteins", "procedure": "as §1, §2"}, "[3]": {"target": "T3, interaction between Src and ND2 (Rattus norvegicus, UniProt P11662)", "T3 construct": "from tissue; host or cells: rat brain post-synaptic density fraction", "T3 sequence (P11662 1-346)": "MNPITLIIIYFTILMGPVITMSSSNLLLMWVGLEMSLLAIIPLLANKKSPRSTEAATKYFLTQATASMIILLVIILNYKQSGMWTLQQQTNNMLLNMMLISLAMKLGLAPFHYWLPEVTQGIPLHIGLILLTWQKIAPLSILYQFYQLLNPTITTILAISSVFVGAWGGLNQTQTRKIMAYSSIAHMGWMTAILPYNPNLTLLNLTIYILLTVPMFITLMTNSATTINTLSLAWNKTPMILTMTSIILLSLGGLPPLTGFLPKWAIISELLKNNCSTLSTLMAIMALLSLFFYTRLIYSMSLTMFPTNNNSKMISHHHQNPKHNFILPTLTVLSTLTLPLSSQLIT", "test": "co-immunoprecipitation of ND2 by anti-Src from PSD proteins", "conditions": "PSD proteins incubated with peptide", "procedure": "as §1, §2"}}}
{"substance": "Src40-58: peptide comprising amino acid residues 40-58 of SEQ ID NO:4 (Src) (PASADGHRGPSAAFAPAAA; listed as Homo sapiens)", "values": [{"measurement": "co-immunoprecipitation of ND2 with NMDARs", "setting": "[1]", "value": "not affected"}, {"measurement": "co-immunoprecipitation of Src with NMDARs", "setting": "[2]", "value": "suppressed"}, {"measurement": "co-immunoprecipitation of ND2 by anti-Src", "setting": "[3]", "value": "prevented"}, {"measurement": "immunoprecipitation of Src from PSDs", "setting": "[3]", "value": "did not affect"}]}
